{"source": "paper PMC10786891", "about": "“Massively parallel profiling of RNA-targeting CRISPR-Cas13d”", "binders": {"B1": {"name": "target 1 insG 3' of 2 (mixed)", "RNA 1": "CACCCGUGCAAAAAUGCAGGGGUCUAAAACUGAGCGGAUAACCUCUCUAUGG", "RNA 2": "GGGAAUGGAUCCACAUCUACGAAUUCGUACCAUAGAGAGGUUAUCCGCUCGACCGAGAUCGGAAGAGCACACGU"}, "B2": {"name": "target 1 insA 3' of 21 (mixed)", "RNA 1": "B1 RNA 1", "RNA 2": "GGGAAUGGAUCCACAUCUACGAAUUCGUACCAAUAGAGAGGUUAUCCGCUCACCGAGAUCGGAAGAGCACACGU"}, "B3": {"name": "target 1 insA 3' of 10,insA 3' of 3 (mixed)", "RNA 1": "B1 RNA 1", "RNA 2": "GGGAAUGGAUCCACAUCUACGAAUUCGUACCAUAGAGAGGUUAAUCCGCUACACCGAGAUCGGAAGAGCACACGU"}, "B4": {"name": "target 1 G5U,G17A (mixed)", "RNA 1": "B1 RNA 1", "RNA 2": "GGGAAUGGAUCCACAUCUACGAAUUCGUACCAUAAAGAGGUUAUCCUCUCACCGAGAUCGGAAGAGCACACGU"}, "B5": {"name": "target 2 MT 5'PFS CUU 3'PFS AAU (mixed)", "RNA 1": "CACCCGUGCAAAAUUGCAGGGGUCUAAAACCUUCUCCAAAUUGUUUCAUCCU", "RNA 2": "GGGAAUGGAUCCACAUCUACGAAUUCCUUAGGAUGAAACAAUUUGGAGAAGAAUAGAUCGGAAGAGCACACGU"}, "B6": {"name": "target 2 MT 5'PFS CUU 3'PFS AAG (mixed)", "RNA 1": "B5 RNA 1", "RNA 2": "B5 RNA 2 with U54G"}, "B7": {"name": "target 2 MT 5'PFS UUA 3'PFS CCA (mixed)", "RNA 1": "B5 RNA 1", "RNA 2": "B5 RNA 2 with C27U, U29A, A52C, A53C, U54A"}, "B8": {"name": "target 2 MT 5'PFS ACA 3'PFS AAA (mixed)", "RNA 1": "B5 RNA 1", "RNA 2": "B5 RNA 2 with C27A, U28C, U29A, U54A"}, "B9": {"name": "target 2 MT 5'PFS CUU 3'PFS AAC (mixed)", "RNA 1": "B5 RNA 1", "RNA 2": "B5 RNA 2 with U54C"}, "B10": {"name": "target 2 MT 5'PFS CAC 3'PFS CUU (mixed)", "RNA 1": "B5 RNA 1", "RNA 2": "B5 RNA 2 with U28A, U29C, A52C, A53U"}, "B11": {"name": "target 2 MT 5'PFS ACA 3'PFS AAU (mixed)", "RNA 1": "B5 RNA 1", "RNA 2": "B5 RNA 2 with C27A, U28C, U29A"}, "B12": {"name": "target 2 MT 5'PFS CUG 3'PFS AUU (mixed)", "RNA 1": "B5 RNA 1", "RNA 2": "B5 RNA 2 with U29G, A53U"}, "B13": {"name": "target 2 MT 5'PFS GGA 3'PFS UCU (mixed)", "RNA 1": "B5 RNA 1", "RNA 2": "B5 RNA 2 with C27G, U28G, U29A, A52U, A53C"}, "B14": {"name": "target 2 MT 5'PFS GGA 3'PFS CCA (mixed)", "RNA 1": "B5 RNA 1", "RNA 2": "B5 RNA 2 with C27G, U28G, U29A, A52C, A53C, U54A"}, "B15": {"name": "target 2 MT 5'PFS UAA 3'PFS UGU (mixed)", "RNA 1": "B5 RNA 1", "RNA 2": "B5 RNA 2 with C27U, U28A, U29A, A52U, A53G"}, "B16": {"name": "target 2 MT 5'PFS UUG 3'PFS CAU (mixed)", "RNA 1": "B5 RNA 1", "RNA 2": "B5 RNA 2 with C27U, U29G, A52C"}, "B17": {"name": "target 2 MT 5'PFS CUA 3'PFS UAG (mixed)", "RNA 1": "B5 RNA 1", "RNA 2": "B5 RNA 2 with U29A, A52U, U54G"}, "B18": {"name": "target 2 MT 5'PFS GGA 3'PFS UCA (mixed)", "RNA 1": "B5 RNA 1", "RNA 2": "B5 RNA 2 with C27G, U28G, U29A, A52U, A53C, U54A"}, "B19": {"name": "target 2 MT 5'PFS UUG 3'PFS CAC (mixed)", "RNA 1": "B5 RNA 1", "RNA 2": "B5 RNA 2 with C27U, U29G, A52C, U54C"}, "B20": {"name": "target 2 MT 5'PFS UAA 3'PFS UGC (mixed)", "RNA 1": "B5 RNA 1", "RNA 2": "B5 RNA 2 with C27U, U28A, U29A, A52U, A53G, U54C"}, "B21": {"name": "target 2 MT 5'PFS GGA 3'PFS UCC (mixed)", "RNA 1": "B5 RNA 1", "RNA 2": "B5 RNA 2 with C27G, U28G, U29A, A52U, A53C, U54C"}, "B22": {"name": "target 2 MT 5'PFS AGU 3'PFS AGG (mixed)", "RNA 1": "B5 RNA 1", "RNA 2": "B5 RNA 2 with C27A, U28G, A53G, U54G"}, "B23": {"name": "target 2 MT 5'PFS UUC 3'PFS AAC (mixed)", "RNA 1": "B5 RNA 1", "RNA 2": "B5 RNA 2 with C27U, U29C, U54C"}, "B24": {"name": "target 2 MT 5'PFS CAC 3'PFS CUC (mixed)", "RNA 1": "B5 RNA 1", "RNA 2": "B5 RNA 2 with U28A, U29C, A52C, A53U, U54C"}, "B25": {"name": "target 2 MT 5'PFS CUU 3'PFS AAA (mixed)", "RNA 1": "B5 RNA 1", "RNA 2": "B5 RNA 2 with U54A"}, "B26": {"name": "target 2 MT 5'PFS UUG 3'PFS CAA (mixed)", "RNA 1": "B5 RNA 1", "RNA 2": "B5 RNA 2 with C27U, U29G, A52C, U54A"}, "B27": {"name": "target 2 MT 5'PFS CCC 3'PFS UUA (mixed)", "RNA 1": "B5 RNA 1", "RNA 2": "B5 RNA 2 with U28C, U29C, A52U, A53U, U54A"}, "B28": {"name": "target 2 MT 5'PFS CUG 3'PFS AUA (mixed)", "RNA 1": "B5 RNA 1", "RNA 2": "B5 RNA 2 with U29G, A53U, U54A"}, "B29": {"name": "target 2 MT 5'PFS GGA 3'PFS UCG (mixed)", "RNA 1": "B5 RNA 1", "RNA 2": "B5 RNA 2 with C27G, U28G, U29A, A52U, A53C, U54G"}, "B30": {"name": "target 2 MT 5'PFS CUG 3'PFS AUG (mixed)", "RNA 1": "B5 RNA 1", "RNA 2": "B5 RNA 2 with U29G, A53U, U54G"}, "B31": {"name": "target 2 MT 5'PFS GAG 3'PFS AUG (mixed)", "RNA 1": "B5 RNA 1", "RNA 2": "B5 RNA 2 with C27G, U28A, U29G, A53U, U54G"}, "B32": {"name": "target 2 MT 5'PFS CAG 3'PFS CCG (mixed)", "RNA 1": "B5 RNA 1", "RNA 2": "B5 RNA 2 with U28A, U29G, A52C, A53C, U54G"}, "B33": {"name": "target 2 MT 5'PFS ACA 3'PFS AAG (mixed)", "RNA 1": "B5 RNA 1", "RNA 2": "B5 RNA 2 with C27A, U28C, U29A, U54G"}, "B34": {"name": "target 2 MT 5'PFS UUG 3'PFS CAG (mixed)", "RNA 1": "B5 RNA 1", "RNA 2": "B5 RNA 2 with C27U, U29G, A52C, U54G"}, "B35": {"name": "target 2 MT 5'PFS GGA 3'PFS CCG (mixed)", "RNA 1": "B5 RNA 1", "RNA 2": "B5 RNA 2 with C27G, U28G, U29A, A52C, A53C, U54G"}, "B36": {"name": "target 2 MT 5'PFS AGU 3'PFS AGU (mixed)", "RNA 1": "B5 RNA 1", "RNA 2": "B5 RNA 2 with C27A, U28G, A53G"}, "B37": {"name": "target 2 MT 5'PFS CAA 3'PFS UCC (mixed)", "RNA 1": "B5 RNA 1", "RNA 2": "B5 RNA 2 with U28A, U29A, A52U, A53C, U54C"}, "B38": {"name": "target 2 MT 5'PFS CUG 3'PFS CGC (mixed)", "RNA 1": "B5 RNA 1", "RNA 2": "B5 RNA 2 with U29G, A52C, A53G, U54C"}}, "note": "Changes are numbered by the printed parent chain. Numbers in names are those of the source.", "data": [{"target": "T1, EsCas13d, nuclease-dead (Eubacterium siraeum, UniProt B0MS50, R295A;H300A;R849A;H854A)", "T1 sequence": "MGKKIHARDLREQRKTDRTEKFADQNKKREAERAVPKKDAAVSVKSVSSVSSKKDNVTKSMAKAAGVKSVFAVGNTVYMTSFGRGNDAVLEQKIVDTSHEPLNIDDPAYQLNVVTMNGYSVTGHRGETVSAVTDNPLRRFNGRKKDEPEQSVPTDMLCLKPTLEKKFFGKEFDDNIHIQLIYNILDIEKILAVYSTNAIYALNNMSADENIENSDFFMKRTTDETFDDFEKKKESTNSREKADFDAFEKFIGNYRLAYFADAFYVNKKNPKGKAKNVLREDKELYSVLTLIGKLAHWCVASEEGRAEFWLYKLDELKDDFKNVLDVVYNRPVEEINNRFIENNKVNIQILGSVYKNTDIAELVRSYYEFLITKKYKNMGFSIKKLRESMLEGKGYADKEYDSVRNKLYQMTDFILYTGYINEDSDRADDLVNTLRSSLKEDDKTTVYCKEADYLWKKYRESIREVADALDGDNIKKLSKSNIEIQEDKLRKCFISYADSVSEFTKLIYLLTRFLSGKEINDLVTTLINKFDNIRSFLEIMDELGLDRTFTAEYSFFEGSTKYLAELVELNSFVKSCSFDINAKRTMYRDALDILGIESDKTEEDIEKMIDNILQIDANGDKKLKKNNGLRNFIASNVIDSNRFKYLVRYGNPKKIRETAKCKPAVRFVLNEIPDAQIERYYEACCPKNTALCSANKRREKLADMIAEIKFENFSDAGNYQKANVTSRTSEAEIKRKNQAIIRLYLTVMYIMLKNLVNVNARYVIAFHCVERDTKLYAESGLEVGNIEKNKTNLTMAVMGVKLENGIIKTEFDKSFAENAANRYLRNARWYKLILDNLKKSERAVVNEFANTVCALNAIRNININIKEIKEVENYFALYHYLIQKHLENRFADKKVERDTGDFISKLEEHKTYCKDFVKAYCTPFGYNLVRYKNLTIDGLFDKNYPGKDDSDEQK", "assay": "crRNA (strand 1, pre-loaded); Mg2+; 40 mM Tris-HCl pH 7.5, 150 mM NaCl, 6 mM MgCl2, 1 mM DTT, 0.1% Tween-20, 0.2 mg/ml BSA; 25 C; 10 min per concentration, then washed", "settings": "tags: His6-TwinStrep-SUMO cleaved; N-terminal SNAP kept (SNAP-Surface 488); label: 3' end held by stalled T7 RNA polymerase", "units": {"Kd": "nM"}, "values": [{"binder": "B1", "Kd": "8.6 ± 0.4"}, {"binder": "B2", "Kd": "13.8 ± 1.2"}, {"binder": "B3", "Kd": "8.56 ± 0.34"}, {"binder": "B4", "Kd": "91 ± 15"}, {"binder": "B5", "Kd": "4.3 ± 0.6"}, {"binder": "B6", "Kd": "4.1 ± 0.4"}, {"binder": "B7", "Kd": "29 ± 5"}, {"binder": "B8", "Kd": "8.3 ± 1.4"}, {"binder": "B9", "Kd": "4.3 ± 0.5"}, {"binder": "B10", "Kd": "2.31 ± 0.3"}, {"binder": "B11", "Kd": "5.7 ± 1.3"}, {"binder": "B12", "Kd": "2.57 ± 0.22"}, {"binder": "B13", "Kd": "22 ± 4"}, {"binder": "B14", "Kd": "27 ± 5"}, {"binder": "B15", "Kd": "9.5 ± 1.5"}, {"binder": "B16", "Kd": "9.1 ± 1.2"}, {"binder": "B17", "Kd": "1.9 ± 0.4"}, {"binder": "B18", "Kd": "10.4 ± 1.4"}, {"binder": "B19", "Kd": "16.4 ± 2.2"}, {"binder": "B20", "Kd": "5.6 ± 1.2"}, {"binder": "B21", "Kd": "24.2 ± 2.8"}, {"binder": "B22", "Kd": "12.3 ± 1.9"}, {"binder": "B23", "Kd": "15 ± 4"}, {"binder": "B24", "Kd": "2.9 ± 1"}, {"binder": "B25", "Kd": "2.9 ± 0.35"}, {"binder": "B26", "Kd": "9.9 ± 1.4"}, {"binder": "B27", "Kd": "1.25 ± 0.21"}, {"binder": "B28", "Kd": "2.63 ± 0.24"}, {"binder": "B29", "Kd": "17.4 ± 2.7"}, {"binder": "B30", "Kd": "3.17 ± 0.32"}, {"binder": "B31", "Kd": "5.9 ± 0.4"}, {"binder": "B32", "Kd": "11.9 ± 3"}, {"binder": "B33", "Kd": "10 ± 5"}, {"binder": "B34", "Kd": "11.8 ± 0.9"}, {"binder": "B35", "Kd": "12.3 ± 1.2"}, {"binder": "B36", "Kd": "6.8 ± 0.7"}, {"binder": "B37", "Kd": "7.3 ± 0.6"}, {"binder": "B38", "Kd": "4 ± 0.4"}]}]}
